Reference: JP2017222678A (dated 2017)
Positions count from the first letter of the chain named.

T1: ヒトTFPI (human tissue factor pathway inhibitor; American Diagnostica) (human, UniProt P10646 29-304, limits assumed)
T1 construct: Coated on plates (ELISA) or amine-coupled to a CM5 chip (Biacore); also called h-TFPI; hTFPI
T1 sequence (looked up): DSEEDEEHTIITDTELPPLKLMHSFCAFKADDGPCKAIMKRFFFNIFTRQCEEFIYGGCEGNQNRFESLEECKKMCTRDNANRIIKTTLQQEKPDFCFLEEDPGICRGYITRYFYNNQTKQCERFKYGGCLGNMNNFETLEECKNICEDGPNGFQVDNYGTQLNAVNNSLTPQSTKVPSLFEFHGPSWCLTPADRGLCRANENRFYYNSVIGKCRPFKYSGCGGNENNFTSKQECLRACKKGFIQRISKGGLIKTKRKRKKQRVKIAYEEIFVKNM

T2: マウスTFPI (mouse TFPI; R&D System) (mouse, UniProt O54819 29-289, limits assumed)
T2 construct: also called m-TFPI; mTFPI
T2 sequence (looked up): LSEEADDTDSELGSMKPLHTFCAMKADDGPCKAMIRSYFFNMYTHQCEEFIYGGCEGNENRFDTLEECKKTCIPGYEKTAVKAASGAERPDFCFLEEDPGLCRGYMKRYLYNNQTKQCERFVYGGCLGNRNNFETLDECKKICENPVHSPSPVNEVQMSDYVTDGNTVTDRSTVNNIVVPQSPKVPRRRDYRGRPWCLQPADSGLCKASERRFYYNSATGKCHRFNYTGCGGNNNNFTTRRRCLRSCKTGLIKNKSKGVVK

B1: TP-2A10 (Fab, V domains shown)
VH: QVQLVESGGGLVQPGGSLRLSCAASGFTFTSYSMNWVRQAPGKGLEWVSAISYTGSNTHYADSVKGRFTISRDNSKNTLYLQMNSLRAEDTAVYYCARAFLGYKESYFDIWGQGTLVTVSS
VL: DIELTQPPSVSVAPGQTARISCSGDKLGKKYVHWYQQKPGQAPVLVIYGDDKRPSGIPERFSGSNSGNTATLTISGTQAEDEADYYCQAWGSISRFVFGGGTKLTVLG
notes: HuCAL Gold human Fab from E. coli TG1
B2: TP-4B7 (Fab, V domains shown)
VH: QVQLQQSGPGLVKPSQTLSLTCAISGDSVSSNSAAWSWIRQSPGRGLEWLGIIYKRSKWYNDYAVSVKSRITINPDTSKNQFSLQLNSVTPEDTAVYYCARWHSDKHWGFDYWGQGTLVTVSS
VL: DIVMTQSPLSLPVTPGEPASISCRSSQSLVFSDGNTYLNWYLQKPGQSPQLLIYKGSNRASGVPDRFSGSGSGTDFTLKISRVEAEDVGVYYCQQYDSYPLTFGQGTKVEIKR
notes: as for B1
B3: TP-3C2 (Fab, V domains shown)
VH: QVQLQQSGPGLVKPSQTLSLTCAISGDSVSSSSAAWSWIRQSPGRGLEWLGMIYYRSKWYNHYAVSVKSRITINPDTSKNQFSLQLNSVTPEDTAVYYCARGGSGVMDVWGQGTLVTVSS
VL: DIQMTQSPSSLSASVGDRVTITCRASQSITNYLNWYQQKPGKAPKLLIYDVSNLQSGVPSRFSGSGSGTDFTLTISSLQPEDFAVYYCQQYSGYPLTFGQGTKVEIKR
notes: as for B1
B4: TP-3G3 (Fab, V domains shown)
VH: QVQLVESGGGLVQPGGSLRLSCAASGFTFSSYSMSWVRQAPGKGLEWVSSISSSSSNTYYGDSVKGRFTISRDNSKNTLYLQMNSLRAEDTAVYYCARMHYKGMDIWGQGTLVTVSS
VL: B3 VL with S28N, T30H, N31S, Y32H, V51A, N53S, S92Y, G93D
notes: as for B1
B5: 2G6-IgG (antibody, V domains shown)
VH: B3 VH with M52I, H62D, G102H, G103S, S104M, G105V, V106G, M107F
VL: DIVLTQSPATLSLSPGERATLSCRASQYVTSSYLAWYQQKPGQAPRLLIYGSSRATGVPARFSGSGSGTDFTLTISSLEPEDFATYYCQQYSSSPITFGQGTKVEIKR
notes: also called IgG-2G6; TP-2G6 after conversion to IgG
B6: TP-2G6 (Fab, V domains shown)
VH: B3 VH with M52I, H62D, G102H, G103S, S104M, G105V, V106G, M107F
VL: B5 VL
notes: HuCAL Gold human Fab from E. coli TG1; also called 2G6-Fab
B7: TP-3C3 (Fab, V domains shown)
VH: B2 VH with S37G, I52V, K55Y, W102A, H103R, S104A, D105K, H107S, W108G
VL: B3 VL with T30N, N31P, D50A, V51A, Y91L, S92D, G93N, Y94R, P95S, L96I
notes: as for B1
B8: TP-3H2 (Fab, V domains shown)
VH: QVQLVESGGGLVQPGGSLRLSCAASGFTFNSYYMSWVRQAPGKGLEWVSNISSSGSNTNYADSVKGRFTISRDNSKNTLYLQMNSLRAEDTAVYYCARVHYGFDFWGQGTLVTVSS
VL: DIELTQPPSVSVAPGQTARISCSGDKLGKYYAYWYQQKPGQAPVLVIYGDSKRPSGIPERFSGSNSGNTATLTISGTQAEDEADYYCSSAAFGSTVFGGGTKLTVLG
notes: as for B1
B9: TP-2B1 (Fab, V domains shown)
VH: QVQLVESGGGLVQPGGSLRLSCAASGFTFSSYSMSWVRQASGKGLEWVSSIKGSGSNTYYADSVKGRFTISRDNSKNTLYLQMNSLRAEDTAVYYCARNGGLIDVWGQGTLVTVSS
VL: DIELTQPPSVSVAPGQTARISCSGDNLGNKYAHWYQQKPGQAPVLVIYYDNKRPSGIPERFSGSNSGNTATLTISGTQAEDEADYYCQSWTPGSNTMVFGGGTRLTVLG
notes: as for B1
B10: TP-2B3 (Fab, V domains shown)
VH: QVQLQQSGPGLVKPSQTLSLTCAISGDSVSSNSAAWGWIRQSPGRGLEWLGMIYYRSKWYNSYAVSVKSRITINPDTSKNQFSLQLNSVTPEDTAVYYCARTMSKYGGPGMDVWGQGTLVTVSS
VL: DIVLTQSPATLSLSPGERATLSCRASQNIGSNYLAWYQQKPGQAPRLLIYGASTRATGVPARFNGSGSGTDFTLTISSLEPEDFAVYYCQQLNSIPVTFGQGTKVEIKR
notes: as for B1
B11: TP-3G1 (Fab, V domains shown)
VH: QVQLQQSGPGLVKPSQTLSLTCAISGDSVSSNSGGWGWIRQSPGRGLEWLGLIYYRSKWYNAYAVSVKSRITINPDTSKNQFSLQLNSVTPEDTAVYYCARYLGSNFYVYSDVWGQGTLVTVSS
VL: DIQMTQSPSSLSASVGDRVTITCRASQGISSYLHWYQQKPGKAPKLLIYGASTLQSGVPSRFSGSGSGTDFTLTISSLQPEDFATYYCQQQNGYPFTFGQGTKVEIKR
notes: as for B1
B12: TP-2B4 (Fab, V domains shown)
VH: QVQLVESGGGLVQPGGSLRLSCAASGFTFSNYSMTWVRQAPGKGLEWVSGISYNGSNTYYADSVKGRFTISRDNSKNTLYLQMNSLRAEDTAVYYCARIYYMNLLAGWGQGTLVTVSS
VL: DIELTQPPSVSVAPGQTARISCSGDALGTYYAYWYQQKPGQAPVLVIYGDMNRPSGIPERFSGSNSGNTATLTISGTQAEDEADYYCQSYDAGVKPAVFGGGTKLTVLG
notes: as for B1
B13: TP-3C1 (Fab, V domains shown)
VH: QVQLVESGGGLVQPGGSLRLSCAASGFTFSSYSMHWVRQAPGKGLEWVSGISYSSSFTYYADSVKGRFTISRDNSKNTLYLQMNSLRAEDTAVYYCARALGGGVDYWGQGTLVTVSS
VL: DIALTQPASVSGSPGQSITISCTGTSSDLGGFNTVSWYQQHPGKAPKLMIYSVSSRPSGVSNRFSGSKSGNTASLTISGLQAEDEADYYCQSYDLNNLVFGGGTKLTVLG
notes: HuCAL Gold human Fab from E. coli TG1; Shares its VL entry with TP-2G9 and its VH entry with TP-3F2, as the legends print it
B14: TP-3F2 (Fab, V domains shown)
VH: B13 VH
VL: DIELTQPPSVSVAPGQTARISCSGDNLPSKSVYWYQQKPGQAPVLVIYGDNNRPSGIPERFSGSNSGNTATLTISGTQAEDEADYYCQSWTSRPMVVFGGGTKLTVLG
notes: as for B1
B15: TP-2A8 (Fab, V domains shown)
VH: QVQLVESGGGLVQPGGSLRLSCAASGFTFRSYGMSWVRQAPGKGLEWVSSIRGSSSSTYYADSVKGRFTISRDNSKNTLYLQMNSLRAEDTAVYYCARKYRYWFDYWGQGTLVTVSS
VL: DIELTQPPSVSVAPGQTARISCSGDNLRNYYAHWYQQKPGQAPVVVIYYDNNRPSGIPERFSGSNSGNTATLTISGTQAEDEADYYCQSWDDGVPVFGGGTKLTVLG
notes: HuCAL Gold human Fab from E. coli TG1; also called Fab-2A8; TP-2A8-Fab
B16: TP-3E1 (Fab, V domains shown)
VH: QVQLVESGGGLVQPGGSLRLSCAASGFTFSNYAMTWVRQAPGKGLEWVSVISSVGSNTYYADSVKGRFTISRDNSKNTLYLQMNSLRAEDTAVYYCARPTKAGRTWWWGPYMDVWGQGTLVTVSS
VL: DIELTQPPSVSVAPGQTARISCSGDNIGSYYAYWYQQKPGQAPVLVIYDDSNRPSGIPERFSGSNSGNTATLTISGTQAEDEADYYCQSYDSTGLLVFGGGTKLTVLG
notes: as for B1
B17: TP-4A7 (Fab, V domains shown)
VH: QVQLVESGGGLVQPGGSLRLSCAASGFTFRNYAMNWVRQAPGKGLEWVSVISGSSSYTYYADSVKGRFTISRDNSKNTLYLQMNSLRAEDTAVYYCARADLPYMVFDYWGQGTLVTVSS
VL: B16 VL with N26A, I27L, Y30K, Y31F, Y33H, N52E, S89A, T93G, G94L, L96Y
notes: as for B1
B18: TP-2B8 (Fab, V domains shown)
VH: QVQLVQSGAEVKKPGASVKVSCKASGYTFTGNSMHWVRQAPGQGLEWMGTIFPYDGTTKYAQKFQGRVTMTRDTSISTAYMELSSLRSEDTAVYYCARGVHSYFDYWGQGTLVTVSS
VL: DIELTQPPSVSVAPGQTARISCSGDNLRGYYASWYQQKPGQAPVLVIYEDNNRPSGIPERFSGSNSGNTATLTISGTQAEDEADYYCQSWDSPYVHVFGGGTKLTVLG
notes: as for B1

Legend:
[1] = target: T1, ヒトTFPI (human tissue factor pathway …); assay: ELISA, Fab in bacterial lysate on coated human TFPI
[2] = target: T1, ヒトTFPI (human tissue factor pathway …); assay: ELISA on coated human TFPI
[3] = target: T2, マウスTFPI (mouse TFPI; R&D System); assay: ELISA on coated mouse TFPI

Binder | binding result [1] | also measured
B1 | binds | –
B2 | binds | –
B3 | binds | –
B4 | binds | –
B5 | – | EC50 [2]: 0.22 nM; fold improvement of EC50 against 2G6-Fab [2]: 2 fold; EC50 [3]: 0.51 nM; fold improvement of EC50 against 2G6-Fab [3]: 10 fold
B6 | – | EC50 [2]: 0.48 nM; EC50 [3]: 5.18 nM
B7 | binds | –
B8 | binds | –
B9 | binds | –
B10 | binds | –
B11 | binds | –
B12 | binds | –
B13 | binds | –
B14 | binds | –
B15 | binds | –
B16 | binds | –
B17 | binds | –
B18 | binds | –
